Results as given in the nanobody polyreactivity screen of Harvey et al. (2022).

Assay: yeast display, Sf9 membrane polyspecificity reagent, FACS + sequencing; frameworks hold sequencing errors
Method in brief: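 Galactose induction of a Saccharomyces cerevisiae BJ5465 synthetic nanobody display library ran 36–48 hours. The cells were then stained for 1 hour at 4 °C with 10% biotinylated, detergent-solubilized Sf9 membrane reagent, pulled down on streptavidin microbeads and FACS-sorted into low and high (top ~1%) gates on expression and reagent-binding fluorescence. Labels for polyreactivity follow the gate of origin.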

## QVQLVESGGGLVQAGGSLRLSCAASGGILVGYDMGWYRQAPGKERELVAAINYSGGSTNYADSVKGRFTISRDNAKNTVYLQMNSLKTEDTALYYCAARSTARYGYWGQGTQVTVSS
  polyreactivity (PSR sort gate): low polyreactivity

## QVQLVESGGGLVQAGGSLRLSCAASGSIFTPYAMGWYRQAPGKEWELVAAISWRGCNTYYADSVKGRFTISRDNAKNTVYLQMNSLKPEDTAVYYCAAEQNYVYETGSYDYWGQGTQVTVSS
  polyreactivity (PSR sort gate): low polyreactivity

## QVQLVDSGGGLVQAGGSLRLSCAASGFIFKRYAMGWYRQAPGKERELVAAINGGGSSTYYADSVKGRFTISRDNAKNTVYLQMNSLKPDDTAVYYCAADTDSWWYYLYYGEGFDYWGQGTQVTVSS
  polyreactivity (PSR sort gate): high polyreactivity

## QDQLVESGGGLVQAGGSHRLTCAASGFIFAYYAMGWYRQAPGKERELVAAISRSGARTYYADSVKGRFTISRDNAKNTVYLQMKSLKPEDTAVFYCSARIIVDVVGTKYYYWGQGTQVTVSS
  polyreactivity (PSR sort gate): high polyreactivity

## QVQLVESGGGLVQAGGSLRLSCAASGRTFYAYAMGWYRQAPGKERELVAAISWRGGRTYYADSVKGRFTISRDNAKNTVYLQMNSLKPEDTAVYYCAAEYSYGFDYWGQGTQVTVSS
  polyreactivity (PSR sort gate): high polyreactivity

## QVQLVESGGGLVQAGGSLRLSCAASGSILAANAMGWYRQAPGKERELVAAIDWTGGDTYYADSVKGRFTISRDNAKNTVYLQMNSLKPEDTAVYYCAAEFVWPSIAYDVEYDYWGQGTQVTVSS
  polyreactivity (PSR sort gate): low polyreactivity

## QVQLVESGGGLVQAGGSLRLSCAASGSTFSTNALGWYREAPGKELELVDDISSSSGRTYYADSVKGRFTISRDNAKNTVYLQMNSLKPEDTAVYYCAAANQGYRSGRKGVQRFDYWGQGTQVTVSS
  polyreactivity (PSR sort gate): high polyreactivity

## QVQLVESGGGLVQAGGSLRLSCAASGIIFEYYAMVWYRQAPGKDRELVAAISRSSVSTYYADSVKGRFTISRDNAKNTVYLQMNSLKPEDTAVYYCAARQGYGYYKYGKYYYWGQGTQVTVSS
  polyreactivity (PSR sort gate): high polyreactivity

## QVQLVESGGGLVQAGGSLRLSCAASGFTIYYYAMGWYRQAPGKERELVASISWSGGSTNYADSVKGRFTISRDNAKNTVYLQMNRLKPEDTAVYYCNTAGPYRRDYWGQGTQVTVSS
  polyreactivity (PSR sort gate): high polyreactivity

## QVQLVESGGGLVQAGGSLRLSCAASGRIFAPYAMGWYRQAPGKERELVAAIRISGDSTYYADSVKGRFTISRDNAKNTVYLQMNSLKPEDTAVYYCAAEYYILHWFGYAGYPAYNYWGQGTQVTVSS
  polyreactivity (PSR sort gate): high polyreactivity

## QVQLVESGGGLVQAGGSLRLSCAASGGTLDVYAMGWYRQAPGKEREFVAAISWSGGRTYYADSVKGRFTISRDNAKNTVYLQMHSLKPEDTAVYYCATRDRAGYYYWGQGTQVTVSS
  polyreactivity (PSR sort gate): high polyreactivity

## QVQLVESGGGLVQAGGSLRLSCAASGSPFVDNAMGWYRQAPGKEMELVAAIRDGSGGSTRYADSVKGRFTISRDNAKNTVYLQMHSLKPEVTAVYYCAADGYITVNYLRYDYWGQGTQVTVSS
  polyreactivity (PSR sort gate): low polyreactivity

## QVQLVESGGGLVQAGVSLRLICAASGRTFGRSVMGWYRQAPGKERELVAAITSSSSSTYADSVKGRFTISRDNAKNTVYVQMNSLKPEDTEVYYCNKRYPSRHLPEYDYWGQGTQVSVSS
  polyreactivity (PSR sort gate): high polyreactivity

## QVQLVESGGGLVQAGGSLRLSCAASGSTFIRNTMGWYRQAPGKERELLAAISRSGVRTYYADSVKGRFTISRDNAKNTVYLQINSLKPEDTAVSYCAAVSSLSYSFPYDYWGQGTQVTVST
  polyreactivity (PSR sort gate): high polyreactivity

## QVQHEDSGGGLVQAGGSLRLSCAASGRIFSFYTMGWYRQAPGKERELVAAISGSGGSTYYADSVKGRFTISRDNAKNTVYLQMNSLKPEDTAVYYCARRRQRGGVNYWGQGTQVTVSS
  polyreactivity (PSR sort gate): high polyreactivity

## QVQLVESGGGLVQAGGSLRLSCAASGLTFWLNAMGWYRQAPGKERELVAAIRYSGVGTYADSVKGRFTISRDNAKNTVYLQMNSLKPEDTAVYYCAALYNLGYPQFDYWGQGTQVTVSS
  polyreactivity (PSR sort gate): low polyreactivity

## QVQLVESGGGLVQAGGSLRLSCAASGVTFESYDMGWYRQAHGKERELVAAITWDGGSTYYADSVKGRFTISRDNAKNTVYLQMNSLKPEDTAVYYCAADFGTISIDVYSWMDYWGQGTQVTVSS
  polyreactivity (PSR sort gate): low polyreactivity

## QVQLVESGGGLVQAGGSLRLSCAASGITIAGYAMGWYRQAPGKERELVAAITIGGRTYYADSVKGRFTISRDNAKNTVYLQMNSLKPVDTAVYYCAAARGFWWYDYWGQGTQVTVSS
  polyreactivity (PSR sort gate): high polyreactivity

## QVQLVESGGGLVQAGGSLRLSCAASGIIFDSYAMGLYRQAPGKERELVAAITSRGGRTYYADSVKRRFTISRENAKNTVYLQMNSLKPEDTAVYYCAARAIYDRRTEGTSGYDYWGPGTQVTVSS
  polyreactivity (PSR sort gate): low polyreactivity

## QVQLVESGGGLVQAGGSLRLSCAASGRIFTTNAMGWYRQAPGIERELVAAITYSGGTTYYADSVKGRFTISRDNAKNTVYFQMNSLKPEDTAVYYCAADVKFSPPYDYWGQGTQVTVSS
  polyreactivity (PSR sort gate): low polyreactivity

## QVQLVESGGGLVQAGGSLRLSCAASGRILSYYAMGWYRQAPGKERELVAVIRRGASTYADSVKGRFTISRDNAKNTVYLQMNSLKPEDTAVYYCNAERVVGLSATKYGYWGQGTQVTVSS
  polyreactivity (PSR sort gate): low polyreactivity

## QVQLVESGGGLVHAGGSLRLSCAASGSTFDVYVMGWYRQAPGKEREMVAAISSGDDTNYADSVKGRFTISRDNAKNTVYLQMNSLKPEDTEVYYCNADYFDYSRPRYDYWGQGTQVTVSS
  polyreactivity (PSR sort gate): low polyreactivity

## QVQLVESGGGLVQAGGSLRLSCAASGITFLHYAMGWYRQAPGQERELVAAIDYSGGSTYYADSVKGRFTISRDNAKNTVYLEMKSLKPEDTAVYYCNARVPRYNGGSTMEYWGQGTQVTVSS
  polyreactivity (PSR sort gate): high polyreactivity

## QVQLVESGGGLVQAGGSLRLSCAASGSIFYFNAMGWYRQAPGKERELVASITSGGSTNYADSVKGRFTISRDNAKNTVYLQMNSLKPEDTAVYYCNARFPYLSRWLVRGLASYDYWGQGTQVTVSS
  polyreactivity (PSR sort gate): low polyreactivity

## QVQLVESGGGLVQAGGSLRLSCAASGRIFRDYAMGWYRQAPGNERELVAAISWSGGSTYYADSVKGRFTISRDNAKNTVYLQMNSLKPEDTAVYYCAGDYYGGDSYRYDYWGQGTQVTVSS
  polyreactivity (PSR sort gate): low polyreactivity

## QVQLVESGGGLVQAGGSLRLSCAASGFIFYGYAKGWYRQAPGKERELVAGISTGGSKNYADSVKGRFTISRDNAKNTVYVQMNSLKPEDTAVDYCAVVDVEEHVGHWGQGTQVTVSS
  polyreactivity (PSR sort gate): low polyreactivity

## QVQLVESGGGLVQAGGSLRLSCAASGRIFWYNAMGWSRQAPGKERELVAAISSIDGTTYYADSLKGRFTISRDNAKNTFYLQMNSLKPEDTAVYYCAAEDPADQYDYWGQGTQVTVSS
  polyreactivity (PSR sort gate): high polyreactivity

## QVQLVESGGGLVQAGGSLRLSCGASGRNFPGNAMGWYRQAPGKEREFVAVITSRTGNTYYADSVKGRFTISRDTAKNTVYLQMNSLKPEDSAVYYCNGEQYIWSEDYWGQGTQVSVSS
  polyreactivity (PSR sort gate): low polyreactivity

## QVQLVESGGGLVQAGGSLRLSCAASGSIFSFYAMGWYRQAPGKEREFVAAITISDDSTYYADSVKGRFTISRDNAKNTVYLQMNSLKPEDTAVYYCNARYLSWYFKYLYDYWGQGTQVTVSS
  polyreactivity (PSR sort gate): low polyreactivity

## QVQLVESGGGLVQAGGSLRLSCAASGRTFPGNAMGWYRQAPGKERELVAAINSRGSTYYADSVKGRFTISRDNAKHTVYLKMNSLKPEDTAVYYSAAYFGHYWRYYYWGQGTQVNVSS
  polyreactivity (PSR sort gate): high polyreactivity

## QVQLVESGGGLVQAGGTLRLSCAASGRTLGANALGWYRQAPGKERELVAAITQSGSSTYYADSVKGRFTISRDNAKNTVYLQMNSLKPEDTAVYYCAAEWNVVLAGAVYFRYNYWGQGTQVNVSS
  polyreactivity (PSR sort gate): low polyreactivity

## QVQLVESGGGLVQAGGILRLSCAASGSILDLNAMGWYRQAPGKERELFAAISYSGDSTYYADSVKGRFTISRDNAKNTVYLQMNSLKPEDTAVYEGAAEVYGAVYDYWGQGTQVTVAS
  polyreactivity (PSR sort gate): low polyreactivity

## QVQLVESGGGLVQEGGSLRISCAASGSIFQSNAMGRYRQAPGKERERVAAISSSGVRTYYADSVKGRFTISRDNAKNTVYLQMNSLKREDTAVYYCATGWYYAGGPTYEYYYWGQGTQVTVSS
  polyreactivity (PSR sort gate): low polyreactivity

## QVQLVESGGGLVQAGGSLRLSCAASGRTFAFYTMGWYRQAPGKERELVAAITRTGSTSYADSVKGRFTISRDNAKNTVYLQMNSLKPEDTAVYYCATVGYPYTLWHQMDYWGQGTQVTVSS
  polyreactivity (PSR sort gate): low polyreactivity

## QVQLVDSGGGLVQAGGSLRLSCAASGSTYGLYAMGWYRQATGKERELVAAITWRASSTYYADSVKGRFTISRDNAKNTVFLQMNSLKPEDTAVYYCAATWYSRFSRGDYDYWGQGTQVTVSS
  polyreactivity (PSR sort gate): high polyreactivity

## QVQLVESGGGLVQAGGSLRLSCAASGSTFYFNAMGWYRPAPGKERELVAAIDWSGGSTYYADSVKGRFTISRDNAKNTVYLQMNSLKPEDTAVYYCAADISVGRYGDMDYYYKVDYWGQGTQVTVSS
  polyreactivity (PSR sort gate): low polyreactivity

## QVQLEESGGGLVQAGGSLRLTCAASGSTFYGYAMGWYRQAPGKERELVAAITRSGGSTYYADSVKVRFTISRDNAKYTVYLQMNSLKPEDTAVYYCNKYIGWYGTGSDYYWGQGTQVNVSS
  polyreactivity (PSR sort gate): high polyreactivity

## QVQLVESGGGLVQAGGSLRLSCAASGSISETNAMGWYRQAPGKERELVAAISGSGGSTYADSVKGRFTISRDNAKNTVYLQMNSLKPEDTAVYYCARDRYYTREWYWYRHDHWGQGTQVTVSS
  polyreactivity (PSR sort gate): low polyreactivity

## QVQLVESGGGLVQAGGRLRLICAASARTLDRNAIGWYRQAPGEEREFVAAISSSGDSTYADSVKGRFTISRDNAKNTVYLQMNSLKPEDTAVYYCNAEEKVTYSASYFWVYDAMDHWGQGTQVTVSS
  polyreactivity (PSR sort gate): low polyreactivity

## QVQLVESGGGLVQAGGRLRLTCAASGFTFGRYAMGWYRQAPGKERDLVADITSGSGGTYYADSVKGRFTISRATAKNSVYLQMNSLKPEDTAVYYCATGSRSRGALRYAHFDFWGQGTQVSVSS
  polyreactivity (PSR sort gate): high polyreactivity

## QVQLVESGGGLVQAGGSLRLSSAASGRIFYKYAMGWNRQAPGKERELVAGITGSGGSTYYADSVKGRFTISRDNAKNTVYLQMNSLKPEDTAVYYCAKRVSYDYWGQGTQVTVSS
  polyreactivity (PSR sort gate): low polyreactivity

## QVHLVESGGGLVQAGGSLRLSCAASGLTFGVFAMGWYRQAPGKERELVAAITWRGDTTYYADSVKGRFTISRDNAKNTVYLQMNSLKPEDTAVYYCNAVFFYHGTKPAFISHDYWGQGTQVTVSS
  polyreactivity (PSR sort gate): low polyreactivity

## QVQLQESGGGLVQAGGILRLSCAACGNIFPSAVMGWYRQALGKEREFVATINSGSNTYYADSVKGRFTISRDNAKNTVYLQMNSLNLEDNAVYYCAAYFKLPAWHTYWGQGTQVTVSS
  polyreactivity (PSR sort gate): low polyreactivity
